{"source": "patent US8298536B2", "about": "“Methods of treating inflammatory pain” (Pfizer Limited, priority 2008, dated 2012)", "key": {"[1]": {"target": "T1, human β-CGRP (Homo sapiens, UniProt P10092)", "T1 construct": "CGRP (calcitonin gene-related peptide) is a 37 amino acid neuropeptide", "T1 sequence (P10092 82-118 limits assumed)": "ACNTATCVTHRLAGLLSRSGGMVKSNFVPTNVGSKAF", "assay": "Biacore binding affinity, N-biotin β-human CGRP on chip", "settings": "37 ° C.", "text": "(§1) G1 was titrated over the chip surface Binding affinities were deduced from the quotient of the kinetic rate constants (KD=koff/kon) see Table 1."}, "[2]": {"target": "T2, rat α-CGRP (Rattus norvegicus, UniProt P01256)", "T2 construct": "CGRP (calcitonin gene-related peptide) is a 37 amino acid neuropeptide", "T2 sequence (P01256 83-119 limits assumed)": "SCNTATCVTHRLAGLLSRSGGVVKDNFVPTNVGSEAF", "assay": "Biacore binding affinity, N-biotinylated rat α-CGRP on chip", "text": "as §1"}, "[3]": {"target": "T3, rat β-CGRP (Rattus norvegicus, UniProt P10093, R105S)", "T3 construct": "CGRP (calcitonin gene-related peptide) is a 37 amino acid neuropeptide", "T3 sequence (P10093 89-125 R105S limits assumed)": "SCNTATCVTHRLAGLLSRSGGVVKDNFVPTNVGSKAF", "assay": "Biacore binding affinity, N-biotin β-rat CGRP on chip", "settings": "37 ° C.", "text": "as §1"}, "[4]": {"system": "OA hind limb of the rat (MMT)", "assay": "Osteoarthritis pain model (transection of the medial meniscus, MMT), weight bearing", "type": "in vivo", "protocol": "FIG. 1: Osteoarthritis pain model. […] Both antibodies were dissolved in a vehicle solution containing PBS+0.01% Tween 20. Celecoxib was used as positive control in the study. It was suspended in 0.5% methylcellulose and 0.025% Tween-20 and was administered by oral gavage (1 ml/kg) at 30 mg/kg, twice a day throughout the study period. Pain responses were assessed on day 2, 3, 7 and 10 following initiation of the pharmacology study (day 0) and were assessed in a fully blinded fashion. Data re the mean±SEM of 6 rats per group. *p<0.05 and p<0.01 vs baseline value (Dunnett's test in GraphPad Prism). In the figure, from left to right, bar 1=baseline, bars 2-5=null antibody, bars 6-9=1 mg/ml G2, bars 10-13=10 mg/ml G2, bars 14-17=Celecoxib 30 mg/ml.\nTransection of the medial meniscus (MMT) in one hind knee of the rat results in the development of cartilage lesions and other changes in the joint similar to those that occur in OA. The resulting joint pain leads to the development of sustained changes in weight bearing (assessed using an incapacitance meter) in the rat hind limbs and mechanical (tactile) allodynia (assessed using von Frey filaments), in the hind paw, lasting several weeks. Studies were carried out accordingly to a blind protocol, where the investigator was not aware of the identity of the compound/control or the treatment of the animal."}, "[5]": {"assay": "CNS penetration", "settings": "in vivo"}, "[6]": {"system": "rats", "assay": "Long term observation for adverse CNS events (dependence indicators)", "type": "in vivo, rat", "settings": "in comparison to control animals"}, "[7]": {"system": "rat", "assay": "Gastro-intestinal adverse effects in-vivo study"}, "[8]": {"system": "neurogenic skin flare rat model", "assay": "Neurogenic skin flare model (saphenous nerve stimulation, laser Doppler blood flow)", "type": "in vivo", "settings": "for start of significant decrease in blood flow response / development of neurogenic flare in vivo: rat", "protocol": "FIG. 7: Data showing G1 inhibits neurogenic flare in the skin starting from 90 min post-treatment. G1 was administered by intravenous administration (1 ml/kg). Data are from 6-8 or 13 rats per group. *p=0.05, **p=0.01 vs vehicle (phosphate buffered saline) treated group at each time point (AVOVA).\nUsing a neurogenic skin flare rat model the efficacy of G1 was tested for its ability to block CGRP effect in vivo. The saphenous nerve in the rat is electrically stimulated causing CGRP release from nerve endings and leading to vasodilation, the resulting changes in blood flow can be measured using laser Dopler methods.\nChanges in blood flow parameters were expressed as the area under the curve (AUC, change in arbitrary Doppler flux units multiplied by time). CGRP receptor antagonist CGRP8-37 (400 nmol/kg, i.v.) was used as a positive control to validate the specificity of the model (data not shown). To determine the effect of G1 prior to dosing for each animal, the baseline blood flow response to stimulation was established with two saphenous nerve stimulations each 30 minutes apart. Rats were treated with G1 after the blood flow response of the second stimulation had returned to baseline levels (approximately 10 minutes post stimulation) and an additional four stimulations at 30 minute intervals were performed."}, "[9]": {"system": "human or rat CGRP", "assay": "Solution competition by Biacore: human or rat CGRP", "type": "binding", "settings": "premixed mAb+peptide", "text": "(§2) FIG. 5: Solution competition by Biacore: CGRP, CGRP fragments or peptides related in sequence to CGRP were used to determine the specificity of G1.\n(§3) We determined the specificity of antibody G1 to human or rat CGRP by using the Biacore chip to “probe” the free concentration of a premixed complex of mAb+peptide."}, "[10]": {"target": "T4, amylin (Homo sapiens, UniProt P10997)", "T4 sequence (P10997 34-70 limits assumed)": "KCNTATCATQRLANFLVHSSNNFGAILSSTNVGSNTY", "assay": "Solution competition by Biacore: amylin", "type": "binding", "settings": "pre-incubation with an excess of peptide", "text": "as §2, §3"}, "[11]": {"target": "T5, calcitonin (Homo sapiens, UniProt P01258)", "T5 sequence (P01258 85-116 limits assumed)": "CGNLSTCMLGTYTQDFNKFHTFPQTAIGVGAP", "assay": "Solution competition by Biacore: calcitonin", "type": "binding", "settings": "pre-incubation with an excess of peptide", "text": "as §2, §3"}, "[12]": {"target": "T6, adrenomedullin (Homo sapiens, UniProt P35318)", "T6 sequence (P35318 95-146 limits assumed)": "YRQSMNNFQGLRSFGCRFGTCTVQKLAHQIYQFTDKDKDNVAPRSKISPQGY", "assay": "Solution competition by Biacore: adrenomedullin", "type": "binding", "settings": "pre-incubation with an excess of peptide", "text": "as §2, §3"}, "[13]": {"target": "25-37 human α-CGRP fragment (Homo sapiens, UniProt P06881)", "assay": "Epitope identification, alanine scan of C-terminal CGRP fragment (Biacore 3000)", "type": "binding", "settings": "25° C.", "protocol": "(§4) FIG. 4: Alanine scan using a C-terminal CGRP fragment (CGRP 25-37).\n(§5) Interaction analysis was conducted at 25° C. on a Biacore 3000™ system equipped with streptavidin-coated (SA) sensor chips (Biacore AB, Uppsala, Sweden) using a standard Biacore running buffer (HBS-P). […] Each amino acid between position 27-37 was then mutated individually to alanine and expressed the fold loss in affinity compared to the wild-type fragment. […] Purified Fab fragments of antibody G1 were generated. Fab fragments were titrated over the chip using 1 μM as the top concentration of a two-fold dilution series. Association and dissociation phases were monitored at 100 μl/min for 1 minute and 5 minutes respectively. Surfaces were regenerated with a mixture of 35% ethanol+25 mM NaOH+0.5M NaCl."}, "[14]": {"system": "25-37 human α-CGRP fragment", "assay": "Epitope identification, alanine scan of C-terminal CGRP fragment (Biacore 3000)", "type": "binding", "settings": "Fab fragments, positions 27-37 mutated to alanine, 25° C.", "protocol": "as §4, §5"}, "[15]": {"target": "T7, human α-CGRP (Homo sapiens, UniProt P06881)", "T7 sequence (P06881 83-119 limits assumed)": "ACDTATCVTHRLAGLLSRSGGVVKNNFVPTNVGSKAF", "assay": "Biacore binding affinity, N-biotinylated human α-CGRP on chip", "design": "as full-length N-biotinylated human α-CGRP", "text": "as §1"}, "[16]": {"target": "T7, human α-CGRP", "assay": "Binding assay: blocking human α-CGRP from binding to the CGRP1-receptor in SK-N-MC cells", "design": "CGRP (calcitonin gene-related peptide) is a 37 amino acid neuropeptide; host or cells: SK-N-MC cells (endogenous receptor)", "settings": "FIG. 2"}, "[17]": {"assay": "Plasma exposure of antibody in the OA pain study", "type": "in vivo", "settings": "rat", "protocol": "This effect lasted 10 days post administration when the plasma exposure of antibody G2 achieved an average value of 65.1±3 ug/ml (6.3±0.3 ug/ml, for the lower dose at 10 days post IV)."}}}
{"molecule": "G1: humanized IgG2Δa monoclonal anti-CGRP antagonist antibody, vectors ATCC PTA-6867 and PTA-6866; variable regions SEQ ID Nos. 1 and 2 [Antibody G1]", "values": [{"measurement": "koff", "setting": "[1]", "value": "6.98e-05", "unit": "s⁻¹"}, {"measurement": "kon", "setting": "[1]", "value": 451000, "unit": "M⁻¹ s⁻¹"}, {"measurement": "koff", "setting": "[2]; 25 ° C.", "value": "6.18e-05", "unit": "s⁻¹"}, {"measurement": "kon", "setting": "[2]; 25 ° C.", "value": 50800, "unit": "M⁻¹ s⁻¹"}, {"measurement": "koff", "setting": "[2]; 37 ° C.", "value": 0.000399, "unit": "s⁻¹"}, {"measurement": "kon", "setting": "[2]; 37 ° C.", "value": 155000, "unit": "M⁻¹ s⁻¹"}, {"measurement": "koff", "setting": "[3]", "value": "7.85e-05", "unit": "s⁻¹"}, {"measurement": "kon", "setting": "[3]", "value": 516000, "unit": "M⁻¹ s⁻¹"}, {"measurement": "shift in weight bearing on the OA limb", "setting": "[4]; repeat experiments, buffer as negative control", "value": "reversed the shift in weight bearing on the OA limb to normal value"}, {"measurement": "CNS penetration / crossing of blood brain barrier", "setting": "[5]", "value": "Neither antibody G1 nor antibody G2 demonstrate CNS penetration"}, {"measurement": "adverse CNS events such as sedation or stimulation/euphoric behaviour", "setting": "[6]", "value": "did not reveal adverse CNS events"}, {"measurement": "adverse gastro intestinal effects on behaviour, food intake, stool production or histopathology", "setting": "[7]; 1 week comparative study", "value": "no adverse gastro intestinal effects were observed"}, {"measurement": "effect in further neurogenic flare and vasodilatation model tests", "setting": "[8]; 7 days post IV dosing", "value": "marked effect"}, {"measurement": "start of inhibition of neurogenic flare in the skin", "setting": "[8]; FIG. 7, intravenous administration", "value": 90, "unit": "min post-treatment"}, {"measurement": "start of significant decrease in blood flow response", "setting": "[8]; 1 mg/kg IV", "value": 120, "unit": "minutes post dose"}, {"measurement": "start of significant decrease in blood flow response", "setting": "[8]; 10 mg/kg IV", "value": 90, "unit": "minutes post dose"}, {"measurement": "development of neurogenic flare in vivo", "setting": "[8]", "value": "prevent the development of neurogenic flare in vivo"}, {"measurement": "predicted ED50", "setting": "[8]; saphenous nerve stimulation model", "value": 6, "unit": "µg/mL"}, {"measurement": "Biacore response after pre-incubation with human or rat CGRP", "setting": "[9]", "value": "fully blocked"}, {"measurement": "complex formation with amylin", "setting": "[10]", "value": "did not form a complex"}, {"measurement": "complex formation with calcitonin", "setting": "[11]", "value": "did not form a complex"}, {"measurement": "complex formation with adrenomedullin", "setting": "[12]", "value": "did not form a complex"}, {"measurement": "affinity of N-biotinylated 25-37 human α-CGRP fragment vs full-length N-biotinylated human α-CGRP", "setting": "[13]", "value": "bound with the same affinity"}, {"measurement": "alanine scan result, binding region (epitope)", "setting": "[14]", "value": "binds to the C-terminal region of human α-CGRP, particularly residues 25 to 37"}, {"measurement": "koff", "setting": "[15]; 25 ° C.", "value": "7.8e-06", "unit": "s⁻¹"}, {"measurement": "kon", "setting": "[15]; 25 ° C.", "value": 186000, "unit": "M⁻¹ s⁻¹"}, {"measurement": "koff", "setting": "[15]; 37 ° C.", "value": "3.63e-05", "unit": "s⁻¹"}, {"measurement": "kon", "setting": "[15]; 37 ° C.", "value": 587000, "unit": "M⁻¹ s⁻¹"}, {"measurement": "inhibition of binding of α-CGRP to the CGRP1 receptor", "setting": "[16]", "value": "inhibits the binding of α-CGRP to the CGRP1 receptor"}]}
{"molecule": "G2: anti-rat CGRP mouse monoclonal antibody (Wong H C et al. 1993); variable regions SEQ ID Nos. 19 and 20; RN4901 = murine tool in Table 1 legend (antibody, V domains shown, Synthetic polypeptide, Antibody G2 heavy chain variable region; Synthetic polypeptide, Antibody G2 light chain variable region) VH: EVQLQQSGPELVKPGASVKMSCKASGYTFTSSVMHWVKQKPGQGLEWIGYINPYNDGTKYNEKFKGKATLTSDKSSSTAYMELSSLTSEDSAVYYCAKGGNDGYWGQGTTLTVSS VL: EIVLTQSPTTMAASPGEKITITCSASSSISSIYLHWYQQKPGFSPKVLIYRASNLASGVPARFSGSGSGTSYSLTIGTMEAEDVATYYCQQGSTIPFTFGSGTKLEIK", "values": [{"measurement": "duration of effect on weight bearing", "setting": "[4]; 10 mg/kg, IV", "value": 10, "unit": "days post administration"}, {"measurement": "weight bearing deficit of the OA hind limb", "setting": "[4]; 10 mg/kg, IV", "value": "reversed weight bearing deficit of the OA hind limb"}, {"measurement": "weight bearing deficit of the OA hind limb", "setting": "[4]; lower dose (1 mg/kg, IV)", "value": "No effect"}, {"measurement": "plasma exposure, average value", "setting": "[17]; 10 mg/kg IV, 10 days post administration", "value": "65.1 ± 3", "unit": "µg/mL"}, {"measurement": "plasma exposure, average value", "setting": "[17]; lower dose, 10 days post IV", "value": "6.3 ± 0.3", "unit": "µg/mL"}, {"measurement": "CNS penetration / crossing of blood brain barrier", "setting": "[5]", "value": "Neither antibody G1 nor antibody G2 demonstrate CNS penetration"}, {"measurement": "adverse CNS events such as sedation or stimulation/euphoric behaviour", "setting": "[6]", "value": "did not reveal adverse CNS events"}, {"measurement": "adverse gastro intestinal effects on behaviour, food intake, stool production or histopathology", "setting": "[7]; 1 month study", "value": "no adverse gastro intestinal effects were observed"}, {"measurement": "development of neurogenic flare in vivo", "setting": "[8]", "value": "prevent the development of neurogenic flare in vivo"}]}
